Results as given in US9228015B2, “Nogo receptor antagonists and methods of increasing neurite outgrowth” (Biogen Idec MA Inc., priority 2006, dated 2016).

Tests used:
[1] = tested on: rats with mid-thoracic dorsal hemisection injury; test: Intrathecal sNogoR310-Fc in rats with mid-thoracic dorsal hemisection: axon tracing and histology; type: in vivo, rat
From the text: We isolated spinal cord 4 mm rostral to and 4 mm caudal to the lesion site (8 mm long in total) from transgenic mice and embedded it in a glutaraldehyde-polymerized albumin matrix, and cut parasagittally on a vibratome (30 μm thick). We collected transverse sections (50 μm) from the spinal cord 5-7 mm rostral to and 5-7 mm caudal to the injury site. For sNogoR310-Fc injection experiments in rats, the spinal cord extending from 10 mm rostral to 10 mm caudal from the lesion site was cut parasaggitally (50 μm) on a vibrating microtome. Transverse sections were collected from the spinal cord 11-16 mm rostral to and 11-16 mm caudal to the injury site. We incubated the sections with avidin-biotin-peroxidase complex and visualized the BDA tracer by nickel-enhanced diaminobenzidine HRP reaction (Grandpre, Nature 417:547-551 (2002)). We processed some sections for serotonin immunohistochemistry (anti-5-HT antibody) by indirect immunofluorescence. To visualize the lesion area, we double-stained some sections with antibodies directed against GFAP (Sigma®, St. Louis, Mo.). We mounted, dehydrated and covered the sections with mounting medium.
We fused the ligand binding domain (27-310) of rat Nogo receptor-1 to the rat IgG1 Fc domain to promote stability and purification. We purified protein from stably transfected CHO cells. This protein blocks Nogo-66, MAG and myelin action in vitro, as shown previously for mouse sNogoR310-Myc His (Fournier et al., J Neurosci. 22:8876-8883 (2002); Liu et al., Science 297:1190-1193 (2002)). We delived sNogoR310-Fc protein intrathecally to rats with a mid-thoracic dorsal hemisection injury through an osmotic minipump. During a four-week survival period after injury, 1.2 mg sNogoR310-Fc protein was locally administered in each rat. In rats receiving the vehicle treatment (1.2 mg rat IgG), sections rostral to hemisection display the tightly bundled prominent dorsal CST and very few ectopic BDA-labeled CST fibers above the lesion site. […] Numerous ectopic fibers sprouting from the BDA-labeled CST are observed from transverse and parasagittal sections. In some cases, projections cross from the dCST area near the midline to the circumference of the cord, becoming intermingled with the dorsolateral CST. The sprouting axons extend though gray matter to a greater extent than white matter.
(§1) We deeply anaesthetized female Sprague-Dawley rats (190-250 g) and conducted laminectomies at spinal levels of T6-7, exposing the spinal cord. We cut the dorsal half of the spinal cord with a 30-gauge needle and a pair of microscissors to sever the dorsal parts of CSGT tracts, and assured the depth of the lesion (1.8 mm) by passing the sharp part of a number 11 blade across the dorsal half of the cord (Grandpre et al., Nature 417:547-551 (2002)). An osmotic minipump (Alzet® 2ML4, 2 ml volume, 2.5 μl/h, 28 day delivery), which was filled with 1.2 mg rat IgG in PBS or 1.2 mg sNogoR310-Fc fusion protein in PBS, was sutured to muscles under the skin on the back of the animals. A catheter connected to the outlet of the minipump was inserted into the intrathecal space of the spinal cord at the T7-8 level through a small hole in the dura.
Fourteen days after hemisection, a burr hole was made on each side of the skull overlying the sensorimotor cortex of the lower limbs to trace CST fibers. The anterograde neuronal tracer BDA (10% in PBS, 3.5 μl per cortex) was applied at seven injection sites at a depth of 1.5 mm from dura on each side (Grandpre et al., Nature 417:547-551 (2002)). For rubrospinal tract tracing in rats, the tracer BDA (1 μl; MW 10,000; 10% in PBS) was injected into red nucleus on the left side (5.8 mm posterior to bregma, 0.7 mm lateral, 7.0 mm ventral to the skull surface). Two weeks after BDA injection, these animals were perfused with PBS, followed by 4% paraformaldehyde, and tissue was collected for histology.

[2] = tested on: Nogo-66, MAG and myelin action; test: Blockade of Nogo-66, MAG and myelin action in vitro
[3] = tested on: DRG neurons, myelin-mediated inhibition of neurite outgrowth; test: Neurite outgrowth assay, P3-4 rat DRG neurons, myelin mixed with test protein (Example 10); type: cell-based; details: mixed with CNS myelin, FIGS. 9-11
Method: Lab-Tek® culture slides (4 wells) were coated with 0.1 mg/ml poly-D-lysine (Sigma®). CNS myelin alone or mixed with sNogoR310, sNogoR310-Fc fusion protein, mAb 5B10 or control PBS were separately spotted as 3 μl drops. Fluorescent microspheres (Polysciences) were added to the myelin/PBS to allow later identification of the drops (Grandpre et al., Nature 403:439-444 (2000)). Lab-Tek® slides were then rinsed and coated with 10 μg/ml laminin (Gibco™).
Dorsal root ganglions (DRG's) from P3-4 Sprague Dawley rat pups were dissociated with 1 mg/ml collagenase type 1 (Worthington), triturated with fire-polished Pasteur pipettes pre-plated to enrich in neuronal cells and finally plated at 23,000 cells/well on the pre-coated Labtek culture slides. The culture medium was F12 containing 5% heat inactivated donor horse serum, 5% heat inactivated fetal bovine serum and 50 ng/ml mNGF and incubated at 37° C. and 5% CO2 for 6 hours.
Slides were fixed for 20 minutes with 4% paraformaldehyde containing 20% sucrose and stained for the neuronal marker anti beta-III-tubulin (Covance TUJ1) diluted 1:500. As secondary antibody anti-mouse Alexa Fluor® 594 (Molecular Probes) was diluted 1:300 and slides were coverslipped with Gel/Mount™ (Biømeda™). 5× digital images were acquired with OpenLab™ software and analyzed by using the MetaMorph® software for quantification of neurite outgrowth.

[4] = tested on: rats with mid-thoracic dorsal hemisection injury; test: Intrathecal sNogoR310-Fc in rats with dorsal hemisection: behavioral tests; type: in vivo, rat
From the text: The Basso-Beattie-Bresnahan (BBB) locomotor rating scale (Basso et al., Neurotrauma 13:343-359 (1996)), the inclined plane test and the inclined grid walking test (Li and Strittmatter, J Neurosci. 23:4219-27 (2003)) were monitored in rats and mice after injury. For the inclined plane test, we measured the maximal angle to which a 50 cm×60 cm board could be angled for 5 sec without the mouse sliding off. For inclined grid walking, the mice were trained to climb a wire grid (35 cm long with 2.54 cm squares) at a slope of 45 degrees. The number of instances in which the hindpaw dropped below the grid plane was scored for each excursion from bottom to top. For the rat behavioral testing, BBB locomotor scale, grid walking and footprint analysis were performed. For grid walking, the rats were trained to walk on a wire grid (70 cm long with 2.54 an squares), and the number of instances in which the hindpaw dropped below the grid plane was counted. For footprint analysis, the walking patterns of rat hindpaws were recorded with ink during a continuous locomotion across a 90 cm runway, and stride length on each side and stride width were calculated (Metz et al., Brain Res. 883:165-177 (2000)). All of these behavioral tests were performed by at least two individuals. Throughout the surgery, behavioral testing and histologic analysis, researchers were blind to the identity of the compound in the minipump.
as §1, with “A catheter connected to the outlet of the minipump was inserted into the intrathecal space of the spinal cord at the T7-8 level through a small hole in the dura.” left out

[5] = tested on: rats with dorsal hemisection of the spinal cord; test: Rat spinal cord transection assay (Example 12); type: in vivo; details: intrathecal pump, up to 28 days, FIG. 12
Method: Alzet® osmotic pumps were loaded with test solution (sNogoR310-Fc in PBS) made up freshly on the day of use. The loading concentration was calculated to be 5 and 50 μM. Pumps were primed for >40 hours at 37° C. prior to implantation into animals. Female Long Evans rats were given pre-operative analgesia and tranquilizer and anesthetized using isoflurane (3% in O2).
Rats were placed in a stereotaxic frame and the motor cortex exposed for infusion of the tract tracing agent BDA (10,000 MW) bilaterally. Rats then underwent dorsal hemisection of the spinal cord at TS-T6 followed by implantation of the intrathecal catheter and pump system to deliver test compound (n=1 per group).
Rats were allowed to recover and survive up to 28 days after surgery. Behavioral scoring using the BBB system was recorded up to 28 days after induction of injury, just prior to termination of the in-life phase of the study. […]
The Basso-Beattie-Bresnahan (BBB) locomotor rating scale (Basso et al., Neurotrauma 13:343-359 (1996)), the inclined plane test and the inclined grid walking test (Li and Strittmatter, J Neurosci. 23:4219-27 (2003)) were monitored in rats and mice after injury. For the inclined plane test, we measured the maximal angle to which a 50 cm×60 cm board could be angled for 5 sec without the mouse sliding off. […]

B1: sNogoR310-Fc: fusion protein comprising amino acids 26-310 of rat Nogo receptor-1 and a rat Fc fragment (protein)
chain: PCPGACVCYNEPKVTTSRPQQGLQAVPAGIPASSQRIFLHGNRISYVPAASFQSCRNLTILWLHSNALAGIDAAAFTGLTLLEQLDLSDNAQLRVVDPTTFRGLGHLHTLHLDRCGLQELGPGLFRGLAALQYLYLQDNNLQALPDNTFRDLGNLTHLFLHGNRIPSVPEHAFRGLHSLDRLLLHQNHVARVHPHAFRDLGRLMTLYLFANNLSMLPAEVLVPLRSLQYLRLNDNPWVCDCRARPLWAWLQKFRGSSSGVPSNLPQRLAGRDLKRLATSDLEGCA
modifications: left off: a dimerising Fc or GST
notes: fusion protein comprising amino acids 26-310 of rat Nogo receptor-1 and a rat Fc fragment
BDA-labeled axons from sagittal sections ([1]; 1-2 mm caudal to lesion, each rat): approximately 20 | number of sprouts ([1]; 1-10 mm caudal): ~50 sprouts/rat | traced axons from sagittal sections ([1]; 7-8 mm distal to lesion, each rat): ~15 | serotonin fibers relative to control group ([1]; 11-15 mm below the lesion): twice as numerous | density of serotonergic fibers vs vehicle ([1]; 11-15 mm rostral to lesion): similar | total collateral length of each sprout relative to NEP 1-40-treated animals ([1]; distal spinal cord): twice as great | ectopic sprouting fibers adjacent to the dCST ([1]; rostral to lesion, 1.2 mg intrathecal over four weeks): greater increase | average number of BDA-labeled CST fibers relative to vehicle-treated rats ([1]; transverse sections 11-15 mm caudal to hemisection): approximately 20 fold | BDA-labeled RST fibers ([1]; transverse sections 11-15 mm distal to SCI): many BDA-labeled RST fibers | blocks Nogo-66, MAG and myelin action in vitro [2]: blocks | protection of DRG neurons from myelin-mediated inhibition of neurite outgrowth [3]: protected | grid walking errors ([4]; 2-4 weeks post-injury, on average): 4-7 /session | locomotor BBB score ([4]; 2-4 weeks post-trauma): continues to improve | animals with consistent forelimb-hindlimb coordination and parallel paw position ([4]; 4 weeks after injury, 9 treated animals): 9 | functional recovery (BBB score) [5]: promoted functional recovery
